{
  "source": "patent US20110052551A1",
  "about": "“CARDIAC MYOCYTE MORPHOGENIC COMPOSITIONS AND METHODS OF USE THEREFOR” (priority 2008, published 2011)",
  "molecules": {"B1": {"name": "Wnt3a: recombinant Wnt3a protein, canonical Wnt, used at 150 ng/ml (protein, UniProt P56704 19-352, looked up)", "Protein Wnt-3a": "SYPIWWSLAVGPQYSSLGSQPILCASIPGLVPKQLRFCRNYVEIMPSVAEGIKIGIQECQHQFRGRRWNCTTVHDSLAIFGPVLDKATRESAFVHAIASAGVAFAVTRSCAEGTAAICGCSSRHQGSPGKGWKWGGCSEDIEFGGMVSREFADARENRPDARSAMNRHNNEAGRQAIASHMHLKCKCHGLSGSCEVKTCWWSQPDFRAIGDFLKDKYDSASEMVVEKHRESRGWVETLRPRYTYFKVPTERDLVYYEASPNFCEPNPETGSFGTRDRTCNVSSHGIDGCDLLCCGRGHNARAERRREKCRCVFHWCCYVSCQECTRVYDVHTCK"}},
  "key": {"[1]": {"test_system": "unfractionated BMMNCs", "experiment": "Proliferation of unfractionated BMMNCs (Trypan blue cell count)", "assay_type": "cell-based, mice", "details": "cultures initiated with 10^4 cells", "method": "Assessment of cellular proliferation. To study proliferation within each experimental group, unfractionated BMMNCs (n=1×10^4) were cultured as above in separate experiments (see FIG. 9A). Cells were monitored by phase contrast microscopy during culture in a humidified 5% CO2 incubator at 37° C. for up to 21 days. The medium was replenished every 6 days and expanded cells were harvested by trypsinization and gentle resuspension on days 8, 16, and 21. Cell number and viability was determined by Trypan blue staining, and the fold-increase in cell number over time was analyzed."}, "[2]": {"test_system": "unfractionated BMMNCs", "experiment": "qRT-PCR of Wnt3a and β-catenin expression in cultured BMMNCs", "assay_type": "cell-based, mice", "details": "21 days, relative to baseline", "method": "Assessment of mRNA expression by quantitative real-time RT-PCR (qRT-PCR). All qRT-PCR reagents and primers were purchased from Qiagen Inc. (Valencia, Calif., United States of America). Prior to mRNA extraction, cell number was determined and calculated by Trypan blue exclusion. cDNA was generated from freshly isolated (designated as baseline) and cultured unfractionated BMMNCs at days 0, 3, 7, and 21 (see FIG. 9A) using QUANTISCRIPT REVERSE TRANSCRIPTASE™ (Qiagen Inc., Valencia, Calif., United States of America) contained in RT master mix of Cell to cDNA kits according to manufacturer's protocol. […]\nTo avoid amplification of contaminating DNA, all validated qRT-PCR primers were designed to cross […] sequences within the cDNA to be amplified. Quantitative qRT-PCR analysis was performed in an ABI Prism 7900H sequence detection system (Applied Biosystems, Foster City, Calif.) using QUANTITECT™ SYBR® Green Real Time PCR kits. Each 50 μl qRT-PCR reaction contained 2 μl (approximately 50 ng) of cDNA, 5 μl of 1× primer mix (containing approximately 500 nM sense and anti-sense primers) and 25 μl of 2× QUANTITECT™ SYBR® Green master mix. […]\nThe PCR product level is calculated from the threshold cycle (Ct). That is, the amplification cycle number at which exponential PCR-generated gene-specific fluorescence is first detected (above a fixed threshold level). […]"}},
  "data": [
    {"molecule": "B1", "values": [
      {"measurement": "increase in cell number", "setting": "[1]; day 16", "value": "110±0.1", "unit": "fold"},
      {"measurement": "increase in cell number", "setting": "[1]; day 21", "value": "297±0.1", "unit": "fold"},
      {"measurement": "increase in β-catenin expression", "setting": "[2]", "value": "183.4±0.3", "unit": "fold"}
    ]}
  ]
}
